# Assay results reported in patent US20080267948A1, “Croos-B Structure Binding Compounds” (priority 2005, published 2008).
# T1: factor XII (Homo sapiens, UniProt P00748)
# T1 sequence (P00748 20-615): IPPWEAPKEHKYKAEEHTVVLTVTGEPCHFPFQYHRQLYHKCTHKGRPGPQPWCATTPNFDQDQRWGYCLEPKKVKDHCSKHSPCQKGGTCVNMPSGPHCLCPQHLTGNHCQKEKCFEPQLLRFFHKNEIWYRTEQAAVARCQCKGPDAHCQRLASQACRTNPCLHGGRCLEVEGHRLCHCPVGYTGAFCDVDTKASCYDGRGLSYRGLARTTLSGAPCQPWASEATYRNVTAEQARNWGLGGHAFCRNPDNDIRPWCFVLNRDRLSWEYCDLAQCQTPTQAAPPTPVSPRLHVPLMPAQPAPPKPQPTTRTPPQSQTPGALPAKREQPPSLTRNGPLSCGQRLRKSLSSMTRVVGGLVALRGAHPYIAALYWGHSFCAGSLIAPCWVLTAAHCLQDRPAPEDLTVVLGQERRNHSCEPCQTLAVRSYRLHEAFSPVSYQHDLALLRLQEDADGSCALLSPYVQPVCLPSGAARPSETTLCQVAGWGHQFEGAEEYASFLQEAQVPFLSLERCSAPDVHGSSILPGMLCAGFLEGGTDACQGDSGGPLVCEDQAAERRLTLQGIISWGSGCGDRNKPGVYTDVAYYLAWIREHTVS
# Legend:
# [1] = biological target: T2, glycated haemoglobin (Hb-AGE) (Homo sapiens, UniProt P68871+P69905); experiment: ELISA binding of recombinant human BiP to Hb-AGE, with or without tPA or K2P-tPA; details: cell culture supernatant of HEK 293E cells
# T2 construct: purchased Sigma-Aldrich H7379
# T2 sequence (P69905 2-142 limits assumed): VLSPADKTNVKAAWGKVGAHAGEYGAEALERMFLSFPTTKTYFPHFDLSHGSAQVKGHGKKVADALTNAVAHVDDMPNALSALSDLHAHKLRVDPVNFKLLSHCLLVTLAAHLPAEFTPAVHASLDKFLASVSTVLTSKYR
# T2 sequence (P68871 2-147 limits assumed): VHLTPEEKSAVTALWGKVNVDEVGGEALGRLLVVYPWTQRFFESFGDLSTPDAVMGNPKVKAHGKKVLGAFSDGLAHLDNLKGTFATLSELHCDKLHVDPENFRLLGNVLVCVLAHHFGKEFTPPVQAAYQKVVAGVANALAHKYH
# Excerpt: Absorbance was read at 450 nm.
# The threefold diluted cell supernatants were applied to the ELISA plate in duplicates and BiP binding was subsequently measured as described above. Coat efficiency was checked with specific anti-AGE antibody, anti-albumin antibody and anti-Hb antibody.
# [2] = biological target: T3, glycated albumin (BSA-AGE) (Bos taurus, UniProt P02769); experiment: ELISA binding of recombinant human BiP to BSA-AGE, with or without tPA or K2P-tPA; set-up: species or system bovine; details: cell culture supernatant of HEK 293E cells
# T3 construct: purchased Sigma-Aldrich A-7906
# T3 sequence (P02769 25-607): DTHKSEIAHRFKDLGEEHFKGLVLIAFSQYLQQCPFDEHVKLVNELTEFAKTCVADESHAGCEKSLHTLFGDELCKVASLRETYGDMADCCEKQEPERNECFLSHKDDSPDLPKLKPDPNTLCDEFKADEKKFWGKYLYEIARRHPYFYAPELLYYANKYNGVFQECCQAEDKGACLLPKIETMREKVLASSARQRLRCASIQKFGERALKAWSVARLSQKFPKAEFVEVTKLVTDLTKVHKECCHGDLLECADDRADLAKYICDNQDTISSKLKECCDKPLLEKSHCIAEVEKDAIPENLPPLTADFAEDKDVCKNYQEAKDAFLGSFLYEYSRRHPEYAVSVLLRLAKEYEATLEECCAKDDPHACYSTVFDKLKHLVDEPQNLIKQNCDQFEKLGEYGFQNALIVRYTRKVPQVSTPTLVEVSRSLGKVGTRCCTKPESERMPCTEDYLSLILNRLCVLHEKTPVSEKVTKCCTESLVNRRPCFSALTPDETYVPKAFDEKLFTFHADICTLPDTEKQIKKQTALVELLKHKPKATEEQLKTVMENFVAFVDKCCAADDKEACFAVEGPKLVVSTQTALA
# Experimental: Proteins at 5 μg/ml were coated for 1 h at room temperature with agitation, in Microlon high-binding ELISA plates (Greiner) in 50 mM NaHCO3 pH 9.6. Buffer was coated as negative control. A twofold dilutions series of cell culture supernatant of HEK 293E cells over-expressing BiP was also coated to the plate for anti-FLAG-tag antibody control purposes. Plates were washed and blocked with ½*Blocking reagent (Roche). Undiluted cell culture supernatant enriched with 0.1% Tween20 was added to the wells with immobilized protein ligands and incubated for 1 h at room temperature with agitation. Medium was discarded and the plate was washed with PBS with 0.1% v/v Tween20. Mouse monoclonal anti-FLAG-tag antibody (Sigma, A8592, anti-FLAG M2PO conjugate) was diluted 1000× in PBS/0.1% Tween20 and added to all wells, including those that are coated with cell culture supernatant. After a 1 h incubation at room temperature with agitation and after washing, wells were overlayed with 3000× diluted RAMPO (DAKOCytomation) in PBS/0.1% Tween20. […] Absorbance was read at 450 nm.
# Hb-AGE, Hb, BSA-AGE, BSA and buffer were coated. The threefold diluted cell supernatants were applied to the ELISA plate in duplicates and BiP binding was subsequently measured as described above. […]
# tPA [3] = biological target: T4, tPA (Homo sapiens, UniProt P00750); experiment: ELISA binding of β2GPI to immobilized tPA; details: tPA immobilized
# T4 sequence (P00750 36-562): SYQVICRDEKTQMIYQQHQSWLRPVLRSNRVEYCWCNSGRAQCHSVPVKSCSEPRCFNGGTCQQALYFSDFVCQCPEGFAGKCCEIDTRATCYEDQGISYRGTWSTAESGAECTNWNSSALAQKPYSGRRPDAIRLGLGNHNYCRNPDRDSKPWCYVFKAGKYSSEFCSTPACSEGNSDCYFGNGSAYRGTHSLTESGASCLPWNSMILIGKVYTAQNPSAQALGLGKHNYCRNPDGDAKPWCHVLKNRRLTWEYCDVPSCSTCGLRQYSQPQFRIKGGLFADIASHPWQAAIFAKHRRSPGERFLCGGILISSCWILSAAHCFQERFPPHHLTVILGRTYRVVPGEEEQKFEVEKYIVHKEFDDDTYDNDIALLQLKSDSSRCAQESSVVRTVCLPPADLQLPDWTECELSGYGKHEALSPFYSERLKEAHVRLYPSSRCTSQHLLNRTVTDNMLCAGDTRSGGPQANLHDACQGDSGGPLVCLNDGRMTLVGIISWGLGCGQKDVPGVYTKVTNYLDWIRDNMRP
# Experimental: (§1) Binding of β2GPI was assessed with monoclonal antibody 2B2^17.
# tPA [4] = biological target: T4, tPA; experiment: Plasminogen activation assay (tPA-mediated conversion of Plg to plasmin); format: biochemical; set-up: purchased Boehringer-Ingelheim Actilyse; details: 100 μg ml^−1 protein or peptide, 400 pM tPA, substrate S-2251
# Experimental: Plasmin (Plm) activity was assayed as described^4. Peptides and proteins that were tested for their stimulatory ability were used at 100 μg ml^−1, unless stated otherwise. […] Chromogenic substrate S-2251 (Chromogenix, Instrumentation Laboratory SpA, Milano, Italy) was used to measure Pls activity.
# Purification of β2-glycoprotein I (β2GPI) was performed according to established methods^15,16. Recombinant human β2GPI was made using insect cells and purified as described^15. Plasma derived β2GPI as used in a factor XII ELISA, the Plg-activation assay and in the anti-phospholipid syndrome antibody ELISA (see below), was purified from fresh human plasma as described^16. […]
# Solutions of fibrin peptide FP6, NH2—IDIKIR-COOH (Peptide facility, Dutch Cancer Institute, Amsterdam, the Netherlands) were prepared in various ways. […] Separate samples were prepared similarly and analyzed by electron spray ionization mass spectrometry (ESI-MS) to obtain information on the distribution of the peptide over putatively present oligomers (Dr C. Versluis, Department of Biomolecular Mass Spectrometry, Bijvoet Center for Biomolecular Research, Utrecht University, Utrecht, The Netherlands). […] Micrographs were recorded at 80 kV, at suitable magnifications on a JEM-1200EX electron microscope (JEOL, Japan).
# [5] = tested on: anti-β2GPI auto-antibodies from antiphospholipid syndrome patients; experiment: Interference with binding of anti-β2GPI autoantibodies to immobilized β2GPI; set-up: species or system human; details: concentration series of β2GPI in solution
# Experimental: β2GPI by recombinant β2GPI and not by plasma derived β2GPI When plasma derived β2GPI is coated onto hydrophilic ELISA plates, anti-β2GPI auto-antibodies isolated from plasma of antiphospholipid syndrome autoimmune patients can bind^18. To study the influence of coincubations of the coated β2GPI with the antibodies together with plasma β2GPI or recombinant β2GPI, concentration series of β2GPI were added to the patient antibodies. Subsequently, binding of the antibodies to coated β2GPI was determined.
# factor XII = biological target: T1, factor XII; experiment: ELISA binding of β2GPI to immobilized factor XII; set-up: human factor XII from plasma (Calbiochem); purchased Calbiochem; host or cells: human plasma; details: factor XII immobilized
# Experimental: as §1
kD of binding to tPA (tPA [3]),kD of binding to factor XII (factor XII),Molecule,BiP binding to Hb-AGE and native haemoglobin [1],BiP binding to BSA-AGE and native BSA [2],stimulation of tPA-mediated conversion of Plg to plasmin (tPA [4]),inhibition of binding of anti-β2GPI auto-antibodies to immobilized β2GPI [5]
–,–,"BiP: recombinant human BiP with carboxy-terminal linker, FLAG-tag and His-tag, expressed in HEK 293E cells",binds to glycated haemoglobin (Hb-AGE) and to a lesser extent to coated native haemoglobin,binds to glycated albumin (BSA-AGE) and not to native BSA,–,–
2.3 µg/mL,0.9 µg/mL,"Recombinant β2GPI: recombinant human β2-glycoprotein I made using insect cells (protein, UniProt P02749 20-345, looked up, recombinant, insect cells) Beta-2-glycoprotein 1: GRTCPKPDDLPFSTVVPLKTFYEPGEEITYSCKPGYVSRGGMRKFICPLTGLWPINTLKCTPRVCPFAGILENGAVRYTTFEYPNTISFSCNTGFYLNGADSAKCTEEGKWSPELPVCAPIICPPPSIPTFATLRVYKPSAGNNSLYRDTAVFECLPQHAMFGNDTITCTTHGNWTKLPECREVKCPFPSRPDNGFVNYPAKPTLYYKDKATFGCHDGYSLDGPEEIECTKLGNWSAMPSCKASCKVPVKKATVVYQGERVKIQEKFKNGMLHGDKVSFFCKNKEKKCSYTEDAQCIDGTIEVPKCFKEHSSLAFWKTDASDVKPC",–,–,stimulate tPA-mediated conversion of Plg to plasmin,efficiently inhibits binding of anti-β2GPI auto-antibodies to immobilized β2GPI
